The supplement of paper PMC9170038

Tested on: K4 kissing-loop RNA reporter
Test: apparent KD of K4 kissing-loop reporter; higher = weaker reporter binding
Conditions: Eterna round: R107
Experimental: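 RNA-MaP round R107: designed RNA switches with theophylline, tryptophan, arginine or FMN aptamers are transcribed on-chip within common flanks. They are titrated with a labelled K4 kissing-loop RNA reporter in RNA-MaP buffer (100 mM Tris pH 7.5, 80 mM KCl, 4 mM MgCl2), without ligand or with the indicated ligand. Median apparent KD per design.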

[1] = input ligand: theophylline 20 uM
[2] = input ligand: tryptophan 2.4 mM
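Note: bound reporter read as fluorescence of individual clusters on recovered sequencing chips by microscopy, with normalized cluster intensities fitted with a binding model.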

Row | Sequence | apparent KD of K4 kissing-loop reporter (input ligand: FMN 200 uM) [nM] | apparent KD of K4 kissing-loop reporter (input ligand: arginine 13.2 mM) [nM] | apparent KD of K4 kissing-loop reporter (input ligand: none) [nM] | apparent KD of K4 kissing-loop reporter [1] [nM] | apparent KD of K4 kissing-loop reporter [2] [nM]
1 | AUACGUUUAAGUGAUACCAGACAUGUGAGUGAUGUUUACAUAUAUAUUUAAUAUUUAGCUGUCCCUUGGCAGCACAGUUUAUUUA [JR_ExcTheophyB_Sub001] | 350 | 374 | 441 | 399 | 308
2 | AUAAAUUUGUAGUGAUGUUGCAAGUUAGUCAAGGAUAUCAGGAAACUGAGAAGGUGAUAUCUCCUUUACUUGCAACUAGGAGGAG [KL-SSFMN-A11] | 88 | 87.3 | 91 | 90.8 | 85.7
3 | UACAUAUCACUUUUUCUACAAUUAUUUAGUCAGGAUAUCGAUUAAACGAGAAGGGACAUUAUCAAGUGAUGUUUGAUAAUUCAAA [JR_Nu_SSFMNA_Sub028] | 156 | 129 | 118 | 159 | 124
4 | AGUGAUGUUUUUUUUAAGAGUGAUGUUUUUCGAGGACCGGUACGGCCGCCACUCGAGUGAUGAGUGCGUUGUUGUGAUGUUUAGU [#11 K4 Tryptophan A Exclusion] | 438 | 362 | 473 | 413 | 246
5 | UCGAUGGUCAGCGAUACCAGCCCAGUGAUGUUGGGCACAUGGUUGCGGAAAAUCCCAUUGGGCCCUUGGCAGCGCUUGCAUGGGU [Titiquesan] | 130 | 122 | 123 | 136 | 116
6 | AUUUGUUACCUUAUAGGAGUGAUGUUCUUGCGAGGACCGGUACGGCCGCCACUCGCGCUGGCGCCUAGCCUCGGACCGUUAAUUC [theeternabot_exclusion_KL_Trp_A_25] | 582 | 325 | 635 | 497 | 431
7 | AGUGUUAGGUUAGAUACCAGCCGUUCGUGAAUAGUCUUCGAACCGCCAGUGAUGUUGGCAGGCCCUUGGCAGCUAACAGAACAGA [Lagelare] | 212 | 199 | 198 | 159 | 208
8 | UUCUAAAUGUCUGAUACCAGAGAAAAUAUAUGUAGUGAUGUUAUAUACAAAUUUAAUAAGCUCCCUUGGCAGCAGUAUGAAUUUU [AstrosExc-TheB#13] | 705 | 744 | 949 | 755 | 595
9 | GGAGUUACCUGGGAUACCAGCCGGAGGCCCAGAGCUCGGAGUGAUGUUCUGGGAUGUUUCGGCCCUUGGCAGCUCUGGGUCUCCC [#2 Exclusion - Theophylline B Attempt #6 (HarryS)] | 1520 | 512 | 535 | 505 | 521
10 | AGACCUCAGUGAUGUUGAGGUAACACUGAUACCAGCGACUUGAUUCGCCCUUGGCAGCAGUCCACCGAGGUAUCUGAUCAGGUCA [#25 K4 Theophylline A Exclusion] | 159 | 158 | 137 | 168 | 140
11 | AACACUCUGGGAGUGAUGUUCUCAAAUAACCGAGGACCGGUACGGCCGCCACUCGGAAAAGAGUGAGUCCUACGAAAAGUAGGAC [Omei inspired 3] | 225 | 258 | 235 | 264 | 152
12 | UUAGGAGUGGGAGGAUAUCCUAAUGUGGGUGAUGUUAGCGAUGUUGAAAGUGUAGUGAUGUUGUGCGGAGAAGGUCCAGUGUUGA [BDazzled - #12 - Exc. FMN B] | 197 | 141 | 175 | 269 | 168
13 | GAUGAUCGCGCGGCCGCCACUGGUCAGUGAUGUUGACAUUAAUGCGCCGAGUAGUAACGGCGCAGCAGGACCGGGCGCGAUGUAG [#12 K4 Tryptophan B Same State] | 144 | 141 | 145 | 121 | 163
14 | UGACAUUGCUCAGAUACCAGUCAUGAGGAUCACCCAUGGGCCAAACGUACAAUAAUAAAUGACCCUUGGCAGCUGAGCAAUGUCU [TheoBX 14] | 64.5 | 36.9 | 55.4 | 135 | 62.8
15 | CAUGGAGUGAUGCUCCAUGGUCGGGCUUGGCAGGAUAUGGGAUCUUCCAGAAGGGCCGAUCCCGGCGAGUGAUGUUCGCUGGUCU [Exclusion FMN A GF 28] | 167 | 332 | 316 | 433 | 271
16 | AAGCCAGUGAUGUUGGCAAAAUAAACUGAAGGAGCGCGUGAAAACGCAGGUAGGUCGCAGAACCUUGCCAACUAACACGAAAGUG [Ex Arginine A K4 19] | 268 | 246 | 305 | 387 | 287
17 | UUACUACCCAGUGAUGUUGGGUAGCGGCCACGAGGACCGGUACGGCCGCCACUCGAGGUUCGGGAGUGAUGUUCCUACUAUUUGG [Same state Tryptophan A GF 6] | 328 | 341 | 360 | 402 | 160
18 | GGCCGGCCGGGAAGGAGCGGGAGUGAUGUUUUCGCAAAGAAAGAUAUAAAAGAAACGAAAUCCCAGGUAGGUCGCCCGGCCGGUU | 64.4 | 113 | 91.3 | 160 | 66.4
19 | AGGUACAAAAGUACCGCUAGAUCCACGGAAGGAGCGCCGGAAACGGCAGGUAGGUCGCCGGGCAGUGAUGUUGCCGGAUCUAGCA [Omei KL Arginine A SS A v4] | 161 | 155 | 231 | 240 | 198
20 | CCUUCUCUUGGUAGUGAUGUUAUCAAGGACAAGGAUAUCAUCUCAAUGAGAAGGUGUCCUUGAUAACAUGGAGGUCUGAAACAGA [Omei KL FMN A Exc C v8] | 65.5 | 352 | 174 | 455 | 615
21 | GAUCCAUGACAAGGAUAUUCGCCAACGGUGCCGGAGUGAUGUUCUGCACAACAGACUACAAGUAAGGAAGAAGGUGUCAGUUACC [theeternabot_sameState_KL_FMN_B_29] | 595 | 843 | 946 | 609 | 561

Row | Sequence | apparent KD of K4 kissing-loop reporter (input ligand: FMN 200 uM) [nM] | apparent KD of K4 kissing-loop reporter (input ligand: arginine 13.2 mM) [nM] | apparent KD of K4 kissing-loop reporter (input ligand: none) [nM] | apparent KD of K4 kissing-loop reporter [1] [nM] | apparent KD of K4 kissing-loop reporter [2] [nM]
22 | AUCUUGUUUGGAGGAUAUUCUUUAUUCGACAUAACCUUCUAUAAGGUGCAGUGAUGUUGCAAUAUAGGAGAAGGUCGAGUGAGAU [Exclusion FMN B GF 17] | 239 | 174 | 188 | 166 | 188
23 | GUUACGCAUGGAAGGAGCGCUCUCAUACUUAAUAACACAGUGAUGUUGUGAAUUUGUAUAAAGCAGGUAGGUCGCCAUGUGUAAC [Ex Arginine B K4 7] | 417 | 323 | 424 | 379 | 346
24 | GGUUUCUGAAGUGAUGUUUCAGGAUGACACAAGGAUAUAUAUGGCGAUAGAAGGUGUGCGUCGCAUGACGAACGACGUCAGCUUC [theeternabot_exclusion_KL_FMN_A_37] | 94.8 | 80.9 | 120 | 123 | 93
25 | AAAUUGUUUAGAGGAUAUUCUUUAUUCGACAUAACCUUCUAUAAGGUGCAGUGAUGUUGCAAUAUAGGAGAAGGCUGAGCGAUAA [Exclusion FMN B Gf 14] | 311 | 177 | 217 | 196 | 178
26 | AUGUCUGAUAGCAGUGAUGUUGCUUCAGAUACCAGACGAGAUCAUGUCCCUUGGCAGCUGACACGGCACGUGCUAGGUUAGAUGA [whbob_Ex_Theo_A_th71] | 117 | 94.4 | 118 | 102 | 102
27 | CACUCGGUAUCAGAUACCAGACUAACGAUACCGAGUGUAUCGGGUAGUGAUGUUACCAUAGUCCCUUGGCAGCUGAUAUUCCCUA [Theo B SS t9a] | 252 | 203 | 258 | 210 | 199
28 | GCCGUAGAUUGAAGGAGCGUGGACCUAUCGCUUGAACAGUGAUGUUGUUUAUCUAGGAAGCCGCAGGUAGGUCGCAAUCUACGGC | 331 | 292 | 420 | 337 | 382
29 | AUAUCUAGAGUGAUGUUCUAGUAAGCUGAAGGAGCGGACGAAAGUCCAGGUAGGUCGCAGUGUUUUUACACCUCAUGUGUAGGAG [KL-SSArg-A7 #analogue] | 118 | 128 | 107 | 163 | 130
30 | AGCCGAAAGGCGAGUGCUGUCGCUCCGGAAGGAGCGCAGGAAACUGCAGGUAGGUCGCCGGAGUGAUGUUUUGGUGCAGCACUCA [Omei KL Arginine A Exc B v7] | 163 | 218 | 129 | 132 | 134
31 | AUUUUUUUGUCAGGAUAUUAGUGUUGGUUUGGUUUGUUAGUGAUGUUGAUAUUUGUUUUAUGUAUUUAAGAAGGGAUUUAGCUGU [ppdemullin] | 391 | 359 | 346 | 427 | 278
32 | UGAUAGGACAGAAGGAGCGGAAGUGAUGUUUCCAAAAGGAGAGGUCGACAAAGUCGACCCUUCCAGGUAGGUCGCUGUCCUAUCU [ArgBX 10 #Palindromic #SwitchBubble #StaticStem] | 95.3 | 83.5 | 79.1 | 105 | 86.7
33 | UGACUGGAUGGAAGGAGCGCUAAACUCCUAGUGAUGUUAGGGAUAUGAGGCAAAGCCUUGAGGCAGGUAGGUCGCCAUCUAGUCU [FiskerMod 25 - Jieux - Same State - Arginine B] | 191 | 117 | 131 | 141 | 145
34 | AUUAUAAAGUCGGCCGCCACUGAGAGUAGUGAUGUUACUCUAUUCCUUUACAUAUUAUAGUUUAUCAGGACCGGGACAUCAGAUU [JR_ExcTryptoB_Sub018] | 268 | 214 | 279 | 246 | 199
35 | UAAGAAUAACAUGCAGUGAUGUUGCAUGUACGAGGACCGGUACGGCCGCCACUCGAGUCCUCGAACAUGCACCGAGGAAUAACAA [(H,1)-(H,2)-(Trp1)-(Trp2)-(T)'-(H)'-(T)''] | 201 | 118 | 116 | 161 | 402
36 | GGUAGGGCAGCUGCGGAAACGCAGCAUAUCGAGGAUAUCGGGAAACCGAGAAGGCGAGUAGUGAUGUUACUGGUUUAGCCCUACC | 444 | 167 | 191 | 196 | 173
37 | AAGGCCGCGCGGUGAUGUUUCAUCGCCGCCCGAGGACCGGUACGGCCGCCACUCGGAUAUAUCGCAGUGAUGUUGCUCUAUAUCA [Exclusion - Tryptophan A] | 160 | 151 | 155 | 167 | 203
38 | UCUCGGGCCAGUGAUGUUGGCGGCAAGUGGCGAGGACCGGUACGGCCGCCACUCGGCGCAGCAGCGGAGUGAUGUUUCGUGAGUA [Same State Tryptophan A GF 16] | 297 | 1240 | 1230 | 387 | 675
39 | GGGAGAAGUGGUGUUGAUUAAGAAGCGGAAGGAGCGCCGAAGAAGGCAGGUAGGUCGCCGAAAUAUAGUGAUGUUAUAUAAAGGG [ExArg.B] | 155 | 184 | 137 | 218 | 152
40 | UGACUUGCCUGAGGAUAUCUAGGAUAUCCAUAAAAGGAAAUAAUAGUUCAGUGAUGUUGGAGAAGGAGAGAAGGCAGGUAAGUCU [KL-XFMN-B18 #DoubleAptamer #SwitchBubble] | 671 | 514 | 493 | 737 | 448
41 | GCGGUGUUAUGCCCGAGGGUAUAGUUGCCAAAGGAUAUGAUUGUUGUCAGAAGGUUGCGCUUGAUCAGUGAUGUUGGUCUCCAAC [theeternabot_sameState_KL_FMN_A_12] | 398 | 275 | 373 | 342 | 337
42 | AGGGCUGAGAGCGAUACCAGCGGUAACUGUAUGGUCCAAUAGAGUGAUGUUUUAUAGAGCCGCCCUUGGCAGCGCAAUCUAUUAG [XTheo-B5] | 245 | 65.5 | 424 | 184 | 129
